Reference: the supplement of paper PMC5998384

Experiments:
HeLa Kyoto [1] = assay: melting temperature (median over replicates), in situ; higher = more thermally stable
HeLa Kyoto [2] = assay: thermal stability score vs G1/S (z-score of summed log2 fold changes over temperatures); higher = more thermally stable than in G1/S
HeLa Kyoto [3] = assay: solubility change mitosis vs G1/S (difference of NP-40 vs SDS log2 ratios) (log2 ratio difference); higher = more soluble in mitosis
HeLa Kyoto [4] = assay: solubility in G1/S (NP-40 vs SDS abundance) (log2 ratio); higher = more soluble; details: cell cycle stage: G1/S
[5] = cell cycle stage: early G1 (4.5 h after nocodazole release)
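For melting temperature (median over replicates), in situ in this document: HeLa Kyoto cells synchronized by double thymidine or nocodazole block, proteins quantified by TMT10plex mass spectrometry, three independent biological replicates.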
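For solubility change mitosis vs G1/S (difference of NP-40 vs SDS log2 ratios) in this document: synchronized HeLa Kyoto cells (double thymidine block for G1/S, nocodazole release for mitosis), protein amounts in NP-40 versus SDS lysates quantified by mass spectrometry, three biological replicates.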
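For solubility in G1/S (NP-40 vs SDS abundance) in this document: HeLa Kyoto cells arrested at G1/S by double thymidine block, proteins quantified by TMT10plex mass spectrometry in mild NP-40 versus SDS extracts, three biological replicates.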
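For thermal stability score vs G1/S (z-score of summed log2 fold changes over temperatures) in this document: synchronized HeLa Kyoto cells, proteins quantified by TMT10plex mass spectrometry, three biological replicates, mitosis taken 0.5 h after nocodazole release, G1/S directly after double thymidine block.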

| Sequence | melting temperature (HeLa Kyoto [1]; cell cycle stage: G1/S) [°C] | melting temperature (HeLa Kyoto [1]; cell cycle stage: mitosis) [°C] | thermal stability score (HeLa Kyoto [2]; [5]) | thermal stability score (HeLa Kyoto [2]; cell cycle stage: mitosis) | solubility change mitosis (log2) (HeLa Kyoto [3]) | solubility in G1/S (log2) (HeLa Kyoto [4]) |
| --- | --- | --- | --- | --- | --- | --- |
| MTPPRLFWVWLLVAGTQGVNDGDMRLADGGATNQGRVEIFYRGQWGTVCDNLWDLTDASVVCRALGFENATQALGRAAFGQGSGPIMLDEVQCTGTEASLADCKSLGWLKSNCRHERDAGVVCTNETRSTHTLDLSRELSEALGQIFDSQRGCDLSISVNVQGEDALGFCGHTVILTANLEAQALWKEPGSNVTMSVDAECVPMVRDLLRYFYSRRIDITLSSVKCFHKLASAYGARQLQGYCASLFAILLPQDPSFQMPLDLYAYAVATGDALLEKLCLQFLAWNFEALTQAEAWPSVPTDLLQLLLPRSDLAVPSELALLKAVDTWSWGERASHEEVEGLVEKIRFPMMLPEELFELQFNLSLYWSHEALFQKKTLQALEFHTVPFQLLARYKGLNLTEDTYKPRIYTSPTWSAFVTDSSWSARKSQLVYQSRRGPLVKYSSDYFQAPSDYRYYPYQSFQTPQHPSFLFQDKRVSWSLVYLPTIQSCWNYGFSCSSDELPVLGLTKSGGSDRTIAYENKALMLCEGLFVADVTDFEGWKAAIPSALDTNSSKSTSSFPCPAGHFNGFRTVIRPFYLTNSSGVD [LGALS3BP] | 54.5 | 55.9 | 1.36 | 2.15 | -0.127 | -0.0572 |
| MTQQPLRGVTSLRFNQDQSCFCCAMETGVRIYNVEPLMEKGHLDHEQVGSMGLVEMLHRSNLLALVGGGSSPKFSEISVLIWDDAREGKDSKEKLVLEFTFTKPVLSVRMRHDKIVIVLKNRIYVYSFPDNPRKLFEFDTRDNPKGLCDLCPSLEKQLLVFPGHKCGSLQLVDLASTKPGTSSAPFTINAHQSDIACVSLNQPGTVVASASQKGTLIRLFDTQSKEKLVELRRGTDPATLYCINFSHDSSFLCASSDKGTVHIFALKDTRLNRRSALARVGKVGPMIGQYVDSQWSLASFTVPAESACICAFGRNTSKNVNSVIAICVDGTFHKYVFTPDGNCNREAFDVYLDICDDDDF [WDR45] | 53.4 | 53.6 | -0.724 | -0.704 | -0.0635 | -0.26 |
| MTRHGKNCTAGAVYTYHEKKKDTAASGYGTQNIRLSRDAVKDFDCCCLSLQPCHDPVVTPDGYLYEREAILEYILHQKKEIARQMKAYEKQRGTRREEQKELQRAASQDHVRGFLEKESAIVSRPLNPFTAKALSGTSPDDVQPGPSVGPPSKDKDKVLPSFWIPSLTPEAKATKLEKPSRTVTCPMSGKPLRMSDLTPVHFTPLDSSVDRVGLITRSERYVCAVTRDSLSNATPCAVLRPSGAVVTLECVEKLIRKDMVDPVTGDKLTDRDIIVLQRGGTGFAGSGVKLQAEKSRPVMQA [NOSIP] | 45.8 | 47.8 | 4.16 | 6.51 | -0.163 | 0.262 |
| MTSELDIFVGNTTLIDEDVYRLWLDGYSVTDAVALRVRSGILEQTGATAAVLQSDTMDHYRTFHMLERLLHAPPKLLHQLIFQIPPSRQALLIERYYAFDEAFVREVLGKKLSKGTKKDLDDISTKTGITLKSCRRQFDNFKRVFKVVEEMRGSLVDNIQQHFLLSDRLARDYAAIVFFANNRFETGKKKLQYLSFGDFAFCAELMIQNWTLGAVGEAPTDPDSQMDDMDMDLDKEFLQDLKELKVLVADKDLLDLHKSLVCTALRGKLGVFSEMEANFKNLSRGLVNVAAKLTHNKDVRDLFVDLVEKFVEPCRSDHWPLSDVRFFLNQYSASVHSLDGFRHQALWDRYMGTLRGCLLRLYHD [FIBP] | 50.3 | 49.5 | -0.876 | 0.233 | -0.13 | -0.45 |
| MTSFRLALIQLQISSIKSDNVTRACSFIREAATQGAKIVSLPECFNSPYGAKYFPEYAEKIPGESTQKLSEVAKECSIYLIGGSIPEEDAGKLYNTCAVFGPDGTLLAKYRKIHLFDIDVPGKITFQESKTLSPGDSFSTFDTPYCRVGLGICYDMRFAELAQIYAQRGCQLLVYPGAFNLTTGPAHWELLQRSRAVDNQVYVATASPARDDKASYVAWGHSTVVNPWGEVLAKAGTEEAIVYSDIDLKKLAEIRQQIPVFRQKRSDLYAVEMKKP [NIT2] | 54.5 | 54.4 | -0.442 | -1.62 | -0.0539 | 0.178 |
| MTSRSTARPNGQPQASKICQFKLVLLGESAVGKSSLVLRFVKGQFHEYQESTIGAAFLTQSVCLDDTTVKFEIWDTAGQERYHSLAPMYYRGAQAAIVVYDITNQETFARAKTWVKELQRQASPSIVIALAGNKADLANKRMVEYEEAQAYADDNSLLFMETSAKTAMNVNDLFLAIAKKLPKSEPQNLGGAAGRSRGVDLHEQSQQNKSQCCSN [RAB5B] | 57.4 | 58.2 | -0.307 | -2.64 | -0.207 | 0.23 |
| MTSSGPGPRFLLLLPLLLPPAASASDRPRGRDPVNPEKLLVITVATAETEGYLRFLRSAEFFNYTVRTLGLGEEWRGGDVARTVGGGQKVRWLKKEMEKYADREDMIIMFVDSYDVILAGSPTELLKKFVQSGSRLLFSAESFCWPEWGLAEQYPEVGTGKRFLNSGGFIGFATTIHQIVRQWKYKDDDDDQLFYTRLYLDPGLREKLSLNLDHKSRIFQNLNGALDEVVLKFDRNRVRIRNVAYDTLPIVVHGNGPTKLQLNYLGNYVPNGWTPEGGCGFCNQDRRTLPGGQPPPRVFLAVFVEQPTPFLPRFLQRLLLLDYPPDRVTLFLHNNEVFHEPHIADSWPQLQDHFSAVKLVGPEEALSPGEARDMAMDLCRQDPECEFYFSLDADAVLTNLQTLRILIEENRKVIAPMLSRHGKLWSNFWGALSPDEYYARSEDYVELVQRKRVGVWNVPYISQAYVIRGDTLRMELPQRDVFSGSDTDPDMAFCKSFRDKGIFLHLSNQHEFGRLLATSRYDTEHLHPDLWQIFDNPVDWKEQYIHENYSRALEGEGIVEQPCPDVYWFPLLSEQMCDELVAEMEHYGQWSGGRHEDSRLAGGYENVPTVDIHMKQVGYEDQWLQLLRTYVGPMTESLFPGYHTKARAVMNFVVRYRPDEQPSLRPHHDSSTFTLNVALNHKGLDYEGGGCRFLRYDCVISSPRKGWALLHPGRLTHYHEGLPTTWGTRYIMVSFVDP [PLOD3] | 54.2 | 55 | 2.65 | 3.82 | 0.039 | -0.074 |
| MTTDEGAKNNEESPTATVAEQGEDITSKKDRGVLKIVKRVGNGEETPMIGDKVYVHYKGKLSNGKKFDSSHDRNEPFVFSLGKGQVIKAWDIGVATMKKGEICHLLCKPEYAYGSAGSLPKIPSNATLFFEIELLDFKGEDLFEDGGIIRRTKRKGEGYSNPNEGATVEIHLEGRCGGRMFDCRDVAFTVGEGEDHDIPIGIDKALEKMQREEQCILYLGPRYGFGEAGKPKFGIEPNAELIYEVTLKSFEKAKESWEMDTKEKLEQAAIVKEKGTVYFKGGKYMQAVIQYGKIVSWLEMEYGLSEKESKASESFLLAAFLNLAMCYLKLREYTKAVECCDKALGLDSANEKGLYRRGEAQLLMNEFESAKGDFEKVLEVNPQNKAARLQISMCQKKAKEHNERDRRIYANMFKKFAEQDAKEEANKAMGKKTSEGVTNEKGTDSQAMEEEKPEGHV [FKBP5] | 46.7 | 48.6 | 2.48 | 4.23 | -0.124 | 0.0823 |
| MTTFGAVAEWRLPSLRRATLWIPQWFAKKAIFNSPLEAAMAFPHLQQPSFLLASLKADSINKPFAQQCQDLVKVIEDFPAKELHTIFPWLVESIFGSLDGVLVGWNLRCLQGRVNPVEYSIVMEFLDPGGPMMKLVYKLQAEDYKFDFPVSYLPGPVKASIQECILPDSPLYHNKVQFTPTGGLGLNLALNPFEYYIFFFALSLITQKPLPVSLHVRTSDCAYFILVDRYLSWFLPTEGSVPPPLSSSPGGTSPSPPPRTPAIPFASYGLHHTSLLKRHISHQTSVNADPASHEIWRSETLLQVFVEMWLHHYSLEMYQKMQSPHAKLEVLHYRLSVSSALYSPAQPSLQALHAYQESFTPTEEHVLVVRLLLKHLHAFANSLKPEQASPSAHSHATSPLEEFKRAAVPRFVQQKLYLFLQHCFGHWPLDASFRAVLEMWLSYLQPWRYAPDKQAPGSDSQPRCVSEKWAPFVQENLLMYTKLFVGFLNRALRTDLVSPKHALMVFRVAKVFAQPNLAEMIQKGEQLFLEPELVIPHRQHRLFTAPTFTGSFLSPWPPAVTDASFKVKSHVYSLEGQDCKYTPMFGPEARTLVLRLAQLITQAKHTAKSISDQCAESPAGHSFLSWLGFSSMDTNGSYTANDLDEMGQDSVRKTDEYLEKALEYLRQIFRLSEAQLRQFTLALGTTQDENGKKQLPDCIVGEDGLILTPLGRYQIINGLRRFEIEYQGDPELQPIRSYEIASLVRTLFRLSSAINHRFAGQMAALCSRDDFLGSFCRYHLTEPGLASRHLLSPVGRRQVAGHTRGPRLSLRFLGSYRTLVSLLLAFFVASLFCVGPLPCTLLLTLGYVLYASAMTLLTERGKLHQP [SMPD4] | 51.7 | 50.2 | -0.683 | -0.99 | 0.185 | -0.601 |
| MTTLDDKLLGEKLQYYYSSSEDEDSDHEDKDRGRCAPASSSVPAEAELAGEGISVNTGPKGVINDWRRFKQLETEQREEQCREMERLIKKLSMTCRSHLDEEEEQQKQKDLQEKISGKMTLKEFAIMNEDQDDEEFLQQYRKQRMEEMRQQLHKGPQFKQVFEISSGEGFLDMIDKEQKSIVIMVHIYEDGIPGTEAMNGCMICLAAEYPAVKFCKVKSSVIGASSQFTRNALPALLIYKGGELIGNFVRVTDQLGDDFFAVDLEAFLQEFGLLPEKEVLVLTSVRNSATCHSEDSDLEID [PDCL] |  | 51.5 | 0.206 | -0.546 | 0.0999 | -0.0669 |
| MTTPANAQNASKTWELSLYELHRTPQEAIMDGTEIAVSPRSLHSELMCPICLDMLKNTMTTKECLHRFCSDCIVTALRSGNKECPTCRKKLVSKRSLRPDPNFDALISKIYPSREEYEAHQDRVLIRLSRLHNQQALSSSIEEGLRMQAMHRAQRVRRPIPGSDQTTTMSGGEGEPGEGEGDGEDVSSDSAPDSAPGPAPKRPRGGGAGGSSVGTGGGGTGGVGGGAGSEDSGDRGGTLGGGTLGPPSPPGAPSPPEPGGEIELVFRPHPLLVEKGEYCQTRYVKTTGNATVDHLSKYLALRIALERRQQQEAGEPGGPGGGASDTGGPDGCGGEGGGAGGGDGPEEPALPSLEGVSEKQYTIYIAPGGGAFTTLNGSLTLELVNEKFWKVSRPLELCYAPTKDPK [RING1] |  | 50 | 0.769 | 1.05 | 0.222 | -0.00962 |
| MTTSGALFPSLVPGSRGASNKYLVEFRAGKMSLKGTTVTPDKRKGLVYIQQTDDSLIHFCWKDRTSGNVEDDLIIFPDDCEFKRVPQCPSGRVYVLKFKAGSKRLFFWMQEPKTDQDEEHCRKVNEYLNNPPMPGALGASGSSGHELSALGGEGGLQSLLGNMSHSQLMQLIGPAGLGGLGGLGALTGPGLASLLGSSGPPGSSSSSSSRSQSAAVTPSSTTSSTRATPAPSAPAAASATSPSPAPSSGNGASTAASPTQPIQLSDLQSILATMNVPAGPAGGQQVDLASVLTPEIMAPILANADVQERLLPYLPSGESLPQTADEIQNTLTSPQFQQALGMFSAALASGQLGPLMCQFGLPAEAVEAANKGDVEAFAKAMQNNAKPEQKEGDTKDKKDEEEDMSLD [ADRM1] | 51.3 | 51.1 | 0.363 | -2.12 | -0.24 | 0.469 |
